This note sets out measurements from patent US20250136708A1 (YEDA RESEARCH AND DEVELOPMENT, published 2025).

Assay [1] concerns the target T1, human ATP6V1B2 on the surface of senescent human cells (IMR-90 lung fibroblasts, IPF lung fibroblasts, A549 … (human, UniProt P21281 1-511)).
T1 construct: whole, on cells; Endogenous protein on cells; also called surface ATP6V1B2; surface protein expressed in senescent human lung fibroblasts
Briefly: FACS, non-permeabilized senescent IMR-90 cells, antibody at 10 ug/ml. The procedure:
(§1) Control, growing IMR-90 or CCL-206 cells were seeded 24h prior to testing day. On testing day, the medium was aspirated, and cells were gently detached using warm TrypLE Express solution (Thermo Fisher Scientific) followed by the addition of cold FACS buffer (PBS/5% FBS). ATP6V1B2 antibodies were added to the tubes containing the cells and the tubes were incubated for 60-70 minutes at 4C and centrifuged. Antibodies 2G05, 2E11 and 4G06 were tested at 10 ug/ml. Commercial antibodies-LS-B13421 (LS Bio), ab200839 (Abcam), and SC-55544 (Santa Cruz) were used at 20 ug/ml. Two hundred fifty ul of secondary antibody (anti mouse Alexa 647, Jackson 115-605-146 diluted in FACS buffer 1:300) were added and the tubes were incubated for 40 minutes at 4 C. Following incubation, 600 ul FACS buffer supplemented with DAPI (diluted 1:20,000) were added to each tube and the tubes were centrifuged. Cell pellets were resuspended in 200 ul FACS buffer. The samples were analyzed using GUAVA Flow Cytometry analyzer. Data was analyzed using the FCSalyzer 0.9.18-alpha software. Duplicates and dead cells (DAPI positive cells) were excluded.
Background: Flow cytometry measures light scatter and fluorescence of single cells or particles in a stream.

In assay [2] the target is T2, mouse ATP6V1B2 on the surface of senescent mouse lung fibroblasts (CCL-206) (mouse, UniProt P62814 1-511).
T2 construct: whole, on cells; Endogenous protein on mouse cells
T2 sequence (P62814 whole entry): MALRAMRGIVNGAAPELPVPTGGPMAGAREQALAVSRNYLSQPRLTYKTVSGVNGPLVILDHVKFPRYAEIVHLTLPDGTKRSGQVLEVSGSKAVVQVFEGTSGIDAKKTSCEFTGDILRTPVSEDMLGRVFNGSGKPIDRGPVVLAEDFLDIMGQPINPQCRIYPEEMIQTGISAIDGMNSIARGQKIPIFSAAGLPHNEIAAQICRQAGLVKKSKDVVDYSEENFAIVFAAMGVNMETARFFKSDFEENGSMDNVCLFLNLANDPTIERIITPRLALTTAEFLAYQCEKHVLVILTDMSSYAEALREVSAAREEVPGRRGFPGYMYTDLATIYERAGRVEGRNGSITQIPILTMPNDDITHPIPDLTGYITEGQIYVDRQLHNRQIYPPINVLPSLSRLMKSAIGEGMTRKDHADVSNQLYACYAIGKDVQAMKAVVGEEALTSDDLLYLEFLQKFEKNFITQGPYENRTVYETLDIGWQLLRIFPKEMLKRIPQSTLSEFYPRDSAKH
Kind of assay: FACS, non-permeabilized senescent CCL-206 cells, antibody at 10 ug/ml. Here is the method:
Surface binding was examined in non-permeabilized cells using FACS. FIG. 4A: antibody 2G05.
as §1

T1 sequence (P21281 whole entry): as the sequence (P62814 whole entry) above, with M25A, A26V, K460R, T464A, Y474F counted along it

B1: anti-ATP6V1B2 antibody 2E11 (antibody, V domains shown)
VH: EVQLQQSGAELVKPGASAKMSCRAPGYTFTSYWITWVKQRPGQGLEWIGDIYPGSGSTNYNEKFKTKATLTVDTSSSTAYMQLSSLTSEDSAVYYCAELGTFDYWGQGTTLTVST
VL: DVVVTQTPLSLPVSLGDQASISCRSSQSLVHSNGNTYLHWYLQKPGQSPKLLIYKVSNRFSGVPDRFSGSGSGTDFTLKISRVEAEDLGVYFCSQSTHVPYTFGGGTKLEIK
notes: detection was with an anti-mouse secondary antibody
B1: the binding result in assay [1] and in assay [2] was “binds” in each case.
